First the molecules themselves.
T1: Utp5 (S. cerevisiae, UniProt Q04177 1-643)
T1 construct: Utp5, S. cerevisiae, subunit of UtpA; No tag is named for it in either strain; strains are in Supplementary Data 1; source: endogenous, S. cerevisiae YSK32, co-purified with Utp10-GFP; overexpressed (galactose promoter) in S. cerevisiae YSK122, co-purified with Utp15-mCherry
T1 sequence (looked up): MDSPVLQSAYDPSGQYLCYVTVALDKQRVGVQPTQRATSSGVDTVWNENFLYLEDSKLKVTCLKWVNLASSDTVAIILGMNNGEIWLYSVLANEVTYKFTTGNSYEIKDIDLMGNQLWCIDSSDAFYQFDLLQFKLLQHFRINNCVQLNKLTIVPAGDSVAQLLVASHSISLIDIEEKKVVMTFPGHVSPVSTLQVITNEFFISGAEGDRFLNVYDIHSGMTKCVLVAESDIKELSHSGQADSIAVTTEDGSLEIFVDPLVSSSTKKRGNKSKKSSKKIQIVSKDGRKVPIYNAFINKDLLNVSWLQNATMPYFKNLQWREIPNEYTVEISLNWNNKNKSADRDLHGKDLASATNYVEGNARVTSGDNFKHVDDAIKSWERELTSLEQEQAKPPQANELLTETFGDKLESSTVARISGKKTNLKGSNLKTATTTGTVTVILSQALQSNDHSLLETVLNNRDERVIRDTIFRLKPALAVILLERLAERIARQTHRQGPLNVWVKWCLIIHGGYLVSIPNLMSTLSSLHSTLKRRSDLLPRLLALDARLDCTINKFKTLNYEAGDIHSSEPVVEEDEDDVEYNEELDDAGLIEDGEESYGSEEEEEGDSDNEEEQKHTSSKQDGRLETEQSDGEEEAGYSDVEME

T2: Utp8 (S. cerevisiae, UniProt P53276 1-713)
T2 construct: Utp8, S. cerevisiae, subunit of UtpA; No tag is named for it in either strain; strains are in Supplementary Data 1; source: endogenous, S. cerevisiae YSK32, co-purified with Utp10-GFP; overexpressed (galactose promoter) in S. cerevisiae YSK122, co-purified with Utp15-mCherry
T2 sequence (looked up): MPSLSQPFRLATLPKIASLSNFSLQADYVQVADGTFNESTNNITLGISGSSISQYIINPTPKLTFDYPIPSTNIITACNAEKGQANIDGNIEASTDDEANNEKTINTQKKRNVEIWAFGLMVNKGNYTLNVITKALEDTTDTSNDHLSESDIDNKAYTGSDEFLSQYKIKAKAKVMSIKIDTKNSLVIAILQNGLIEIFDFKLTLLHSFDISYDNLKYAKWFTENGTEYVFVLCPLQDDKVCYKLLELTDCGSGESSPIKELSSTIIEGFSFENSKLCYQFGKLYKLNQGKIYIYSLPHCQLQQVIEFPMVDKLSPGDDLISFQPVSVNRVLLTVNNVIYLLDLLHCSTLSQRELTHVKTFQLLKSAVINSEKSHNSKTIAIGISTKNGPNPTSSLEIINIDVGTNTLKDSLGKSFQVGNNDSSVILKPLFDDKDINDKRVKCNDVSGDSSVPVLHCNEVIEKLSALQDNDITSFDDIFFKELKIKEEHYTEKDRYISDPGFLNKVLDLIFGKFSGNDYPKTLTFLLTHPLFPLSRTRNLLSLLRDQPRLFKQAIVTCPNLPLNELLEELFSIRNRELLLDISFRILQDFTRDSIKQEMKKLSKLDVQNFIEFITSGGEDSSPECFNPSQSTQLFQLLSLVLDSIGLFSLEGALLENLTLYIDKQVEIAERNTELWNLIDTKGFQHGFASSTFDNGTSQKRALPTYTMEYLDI

T3: Utp4 (S. cerevisiae, UniProt Q06679 1-776)
T3 construct: Utp4, S. cerevisiae, subunit of UtpA; No tag is named for it in either strain; strains are in Supplementary Data 1; source: endogenous, S. cerevisiae YSK32, co-purified with Utp10-GFP; overexpressed (galactose promoter) in S. cerevisiae YSK122, co-purified with Utp15-mCherry
T3 sequence (looked up): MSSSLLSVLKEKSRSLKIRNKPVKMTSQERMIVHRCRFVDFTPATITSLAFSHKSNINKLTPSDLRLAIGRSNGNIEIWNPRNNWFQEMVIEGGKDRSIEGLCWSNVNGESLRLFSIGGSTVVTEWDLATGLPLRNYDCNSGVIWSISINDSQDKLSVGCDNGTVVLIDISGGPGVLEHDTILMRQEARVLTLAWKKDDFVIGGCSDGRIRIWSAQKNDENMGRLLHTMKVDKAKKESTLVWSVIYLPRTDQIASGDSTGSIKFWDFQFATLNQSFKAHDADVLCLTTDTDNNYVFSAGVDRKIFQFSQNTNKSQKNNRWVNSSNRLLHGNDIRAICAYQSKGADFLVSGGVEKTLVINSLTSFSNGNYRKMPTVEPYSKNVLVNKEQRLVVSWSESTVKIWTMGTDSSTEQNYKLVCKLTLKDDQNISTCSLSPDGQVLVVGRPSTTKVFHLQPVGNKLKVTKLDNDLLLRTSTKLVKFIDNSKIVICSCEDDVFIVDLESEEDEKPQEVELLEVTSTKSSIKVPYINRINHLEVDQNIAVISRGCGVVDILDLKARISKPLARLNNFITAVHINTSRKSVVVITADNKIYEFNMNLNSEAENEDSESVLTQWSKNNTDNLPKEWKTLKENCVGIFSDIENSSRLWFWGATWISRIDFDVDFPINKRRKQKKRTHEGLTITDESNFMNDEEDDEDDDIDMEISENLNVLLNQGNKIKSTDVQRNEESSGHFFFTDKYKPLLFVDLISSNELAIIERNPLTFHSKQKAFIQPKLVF

B1: Utp17 (Nan1) (natural protein, S. cerevisiae, UniProt Q02931 1-896, looked up)
chain: MTQSLGIEQYKLSVVSGGKPALNNLSSVTGNKNIARLSQDQRNYIIPFNNQIKVYSVETRQCVKTLKFANNSLLSGIFLQEEENNESIVKILLGDITVPQQEDAHLITVFTNNGHVIVLNYKGKLVESPKHFKISLADEKLANVFHSEGNYRILTTFKDPSQKAHNSLQSYRLYALTFDDAKKQFEVAHQAEWHNVILSNISSNGKLLAHMCKDVSTKDHEHKSISVVSLFDDSVNLSFPLGSILSSQTQSLSYNTRYVSSMAIDNMGQQLAVGFASGVISIVSLADLQIRLLKWHIDSVLSLSFSHDGSYLLSGGWEKVMSLWQLETNSQQFLPRLNGIIIDCQVLGPQGNYYSLILQMTENNSNSDYQFLLLNASDLTSKLSINGPLPVFNSTIKHIQQPISAMNTKNSNSITSLNHSKKKQSRKLIKSRRQDFTTNVEINPINKNLYFPHISAVQIFDFYKNEQVNYQYLTSGVNNSMGKVRFELNLQDPIITDLKFTKDGQWMITYEIEYPPNDLLSSKDLTHILKFWTKNDNETNWNLKTKVINPHGISVPITKILPSPRSVNNSQGCLTADNNGGLKFWSFDSHESNWCLKKISLPNFNHFSNSVSLAWSQDGSLIFHGFDDKLQILDFDTFKKFESLENTKTVSEFTLDSEIQTVKLINDTNLIVATRTTLNAINLLRGQVINSFDLYPFVNGVYKNGHMDRLITCDERTGNIALVINQQLTDLDGVPTINYKSRIIIFDSDLSTKLGNFTHHEYISWIGWNYDTDFIFLDIESTLGVVGTTVNTQLSDEVNNEGILDGLVSNTITTSASNSDIFAEQLHKLSSRGKKSDTRDKNTNDNDEDEEDIALEFINGEKKDKLVNMNSFTSMFDNIQNVQMDTFFDRVMKVLT
notes: Utp17 (Nan1), S. cerevisiae, subunit of UtpA (101 kDa); source: endogenous, S. cerevisiae YSK32, co-purified with Utp10-GFP
B2: Utp15-3myc-TEV-mCherry-3FLAG (overexpressed) (natural protein, S. cerevisiae, UniProt Q04305 1-513, looked up)
chain: MSTARPRIITSKAPLLPQQTTPEQRYWRQYTSAQLVKEHNSVTHISFNPQHPHDFAVTSSTRVQIFSSRTRQVIKTFSRFKDVVYSASFRSDGKLLCAGDATGLVSVYDSYNPRTILLSINASTHPTHVTKFHTQDNKILATASDDRVTRLWDISNAYEPQLELTGATDYVRTLSFIPAAPHLVATGSYDGLIRLYDTRSSGSTPIYSLNHDQPVENVIAVSPTQIVSCGGNNFKVWDLTSNKKLYERGNFNKAVTCLDYVENFDSPMQSALIASSLDGHVKVFDPLDNFQVKFGWKFSGPVLSCAVSPSTAQGNRHLVAGLSSGLLAIRTKKKEKRSSDKENAPASFNKNAKSNNFQRMMRGSEYQGDQEHIIHNDKVRSQRRMRAFERNINQFKWSEALDNAFVPGMAKELTLTVLQELRKRGKVRVALYGRDESTLEPLLNWCLKGIEDVRSASIVADWVAVVLELYGNTLESSPVLQELMIDLKTKVRHEIHKSKEAQRIEGMLQLLTS
notes: Utp15, S. cerevisiae, subunit of UtpA; Captured by mCherry in a4; the complex is eluted by TEV cleavage, so mCherry-3FLAG is off in the SEC step (a5); also called Utp15-TEV-mCherry; Utp15-mCherry; source: S. cerevisiae YSK122, overexpressed (galactose promoter); captured from lysate on anti-mCherry nanobody sepharose, TEV elution, SEC; not shown: 3myc, C-terminal, kept; mCherry, C-terminal, kept; …
B3: Utp9 (natural protein, S. cerevisiae, UniProt P38882 1-575, looked up)
chain: MGSSLDLVASFSHDSTRFAFQASVAQKNNVDIYPLNETKDYVVNSSLVSHIDYETNDMKVSDVIFFGWCSDLIDTQSSNIKRKLDEDEGTGESSEQRCENFFVNGFPDGRIVVYSSNGKDIVNIIKNKKEILGADTDESDIWILDSDKVVKKLQYNNSKPLKTFTLVDGKDDEIVHFQILHQNGTLLVCIITKQMVYIVDPSKRRPSTKYSFEISDAVACEFSSDGKYLLIANNEELIAYDLKEDSKLIQSWPVQVKTLKTLDDLIMALTTDGKINNYKIGEADKVCSIVVNEDLEIIDFTPINSKQQVLISWLNVNEPNFESISLKEIETQGYITINKNEKNNADEADQKKLEEKEEEAQPEVQHEKKETETKINKKVSKSDQVEIANILSSHLEANSTEILDDLMSGSWTEPEIKKFILTKINTVDHLSKIFLTISKSITQNPWNEENLLPLWLKWLLTLKSGELNSIKDKHTKKNCKHLKSALRSSEEILPVLLGIQGRLEMLRRQAKLREDLAQLSMQEGEDDEIEVIEHSNVISNPLQDQASPVEKLEPDSIVYANGESDEFVDASEYKD
notes: Utp9, S. cerevisiae, subunit of UtpA; No tag is named for it in either strain; strains are in Supplementary Data 1; source: endogenous, S. cerevisiae YSK32, co-purified with Utp10-GFP; overexpressed (galactose promoter) in S. cerevisiae YSK122, co-purified with Utp15-mCherry

The target in one experiment is T4, Utp10-3C-GFP (S. cerevisiae, UniProt P42945 1-1769).
T4 construct: Utp10, S. cerevisiae, subunit of UtpA (200 kDa); GFP is joined through a 3C protease site; it holds the protein on the beads in a1-a3 and is cleaved off by 3C on elution, so it is absent in the SEC step and in the DSS cross-linking (a6); also called Utp10-GFP; Utp10-sbp-H14-3C-GFP; source: S. cerevisiae YSK32, C-terminal tag integrated in the genome, endogenous level; captured from lysate on …
T4 sequence (P42945 whole entry): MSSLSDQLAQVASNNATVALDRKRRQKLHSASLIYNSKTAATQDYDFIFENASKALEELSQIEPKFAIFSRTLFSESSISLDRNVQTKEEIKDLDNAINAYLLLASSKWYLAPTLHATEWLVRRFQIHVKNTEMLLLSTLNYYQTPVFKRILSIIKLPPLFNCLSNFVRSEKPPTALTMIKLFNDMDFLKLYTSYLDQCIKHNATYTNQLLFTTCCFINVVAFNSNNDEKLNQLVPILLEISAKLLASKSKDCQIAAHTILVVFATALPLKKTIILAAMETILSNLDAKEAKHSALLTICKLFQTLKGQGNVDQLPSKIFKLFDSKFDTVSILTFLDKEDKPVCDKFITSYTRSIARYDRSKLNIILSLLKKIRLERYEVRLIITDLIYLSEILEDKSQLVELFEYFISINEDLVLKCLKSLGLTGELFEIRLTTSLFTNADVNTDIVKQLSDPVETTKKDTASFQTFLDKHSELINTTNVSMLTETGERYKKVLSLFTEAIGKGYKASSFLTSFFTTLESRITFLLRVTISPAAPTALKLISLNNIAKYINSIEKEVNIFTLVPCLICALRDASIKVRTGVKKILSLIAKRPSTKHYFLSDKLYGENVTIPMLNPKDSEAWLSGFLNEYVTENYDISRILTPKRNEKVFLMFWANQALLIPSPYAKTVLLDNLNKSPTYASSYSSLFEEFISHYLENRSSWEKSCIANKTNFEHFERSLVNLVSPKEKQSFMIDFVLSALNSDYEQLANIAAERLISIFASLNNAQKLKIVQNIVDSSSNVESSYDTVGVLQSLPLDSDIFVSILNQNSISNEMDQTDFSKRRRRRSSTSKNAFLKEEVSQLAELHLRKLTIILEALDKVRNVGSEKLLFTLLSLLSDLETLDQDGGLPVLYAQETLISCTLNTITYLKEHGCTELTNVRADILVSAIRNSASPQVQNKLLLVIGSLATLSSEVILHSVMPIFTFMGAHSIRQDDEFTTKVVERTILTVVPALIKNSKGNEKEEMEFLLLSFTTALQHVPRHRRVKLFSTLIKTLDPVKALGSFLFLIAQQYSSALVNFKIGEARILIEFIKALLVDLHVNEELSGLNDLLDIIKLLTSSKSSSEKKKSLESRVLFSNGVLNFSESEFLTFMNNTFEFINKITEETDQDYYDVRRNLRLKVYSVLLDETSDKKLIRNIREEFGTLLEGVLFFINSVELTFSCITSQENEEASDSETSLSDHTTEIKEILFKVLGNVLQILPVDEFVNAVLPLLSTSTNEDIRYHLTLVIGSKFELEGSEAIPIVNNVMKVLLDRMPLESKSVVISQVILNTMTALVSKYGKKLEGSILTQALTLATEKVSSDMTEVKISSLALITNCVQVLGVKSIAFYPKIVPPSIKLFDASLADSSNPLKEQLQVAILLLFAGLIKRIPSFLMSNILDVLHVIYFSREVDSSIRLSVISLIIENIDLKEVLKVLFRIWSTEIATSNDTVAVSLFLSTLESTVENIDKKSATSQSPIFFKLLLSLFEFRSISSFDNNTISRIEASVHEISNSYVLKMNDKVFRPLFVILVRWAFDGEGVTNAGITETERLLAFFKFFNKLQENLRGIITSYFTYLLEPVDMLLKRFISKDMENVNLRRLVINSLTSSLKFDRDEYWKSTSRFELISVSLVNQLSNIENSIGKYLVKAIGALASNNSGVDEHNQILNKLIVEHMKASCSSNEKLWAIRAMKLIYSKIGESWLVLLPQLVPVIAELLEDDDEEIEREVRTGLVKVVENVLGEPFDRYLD
Kind of experiment: pull-down; UtpA held via Utp10-GFP on anti-GFP nanobody sepharose (purified at 200 mM NaCl), then incubated 7 h at 4 °C in buffer with 400 mM NaCl; 3C elution; Coomassie-stained SDS-PAGE. Particulars: partners not purified.

A further experiment concerns the target T1, Utp5. The experiment can be described thus: pull-down; Utp4, Utp5, Utp8, Utp9 and Utp15-3myc-TEV-mCherry-3FLAG overexpressed in yeast YSK122; lysate on anti-mCherry nanobody sepharose; 50 mM HEPES-NaOH pH 7.6, 100 mM NaCl, 4 °C; TEV elution. Particulars: partners not purified.
A further experiment addresses T2, Utp8. Described as above. Particulars: partners not purified.
The target in the experiment “Utp9” is B3. Described as above. The note with it: partners not purified.
The target of a further experiment is T3, Utp4. Kind of experiment: cross-linking; DSS (0.2 mM, H12/D12) cross-linking of SEC-purified endogenous UtpA, 25 °C, 30 min, 50 mM HEPES-NaOH pH 7.6, 200 mM NaCl, 1 mM EDTA; cross-linked peptides found by mass spectrometry (pLink). The note with it: both partners purified.

Take B1: in the experiment with Utp10-3C-GFP, the binding result is “binds”.

As for B2, the binding result with Utp5, in the experiment with Utp8 and in the experiment with Utp9 was “binds” each time.

As for B3, the binding result with Utp4 is “binds”.
